Measured values as given in paper PMC7760575, “TORC2-Dependent Ypk1-Mediated Phosphorylation of Lam2/Ltc4 Disrupts Its Association with the β-Propeller Protein Laf1 at Endoplasmic Reticulum-Plasma Membrane Contact Sites in the Yeast Saccharomyces cerevisiae” (Biomolecules, 2020).
Positions count from the first letter of the chain named. Names may count otherwise.

T1: GST-Laf1 (S. cerevisiae, UniProt Q03177 1-834)
T1 construct: Laf1/Ymr102c, S. cerevisiae, WD40 repeat protein; plasmid described only as pGEX4T-1 Laf1, no limits stated; Probably the whole open reading frame (surmised); also called Ymr102c; Lam2/Ltc4-Associated Factor 1; source: E. coli BL21(DE3), purified (glutathione beads); not shown: GST, N-terminal, kept
T1 sequence (looked up): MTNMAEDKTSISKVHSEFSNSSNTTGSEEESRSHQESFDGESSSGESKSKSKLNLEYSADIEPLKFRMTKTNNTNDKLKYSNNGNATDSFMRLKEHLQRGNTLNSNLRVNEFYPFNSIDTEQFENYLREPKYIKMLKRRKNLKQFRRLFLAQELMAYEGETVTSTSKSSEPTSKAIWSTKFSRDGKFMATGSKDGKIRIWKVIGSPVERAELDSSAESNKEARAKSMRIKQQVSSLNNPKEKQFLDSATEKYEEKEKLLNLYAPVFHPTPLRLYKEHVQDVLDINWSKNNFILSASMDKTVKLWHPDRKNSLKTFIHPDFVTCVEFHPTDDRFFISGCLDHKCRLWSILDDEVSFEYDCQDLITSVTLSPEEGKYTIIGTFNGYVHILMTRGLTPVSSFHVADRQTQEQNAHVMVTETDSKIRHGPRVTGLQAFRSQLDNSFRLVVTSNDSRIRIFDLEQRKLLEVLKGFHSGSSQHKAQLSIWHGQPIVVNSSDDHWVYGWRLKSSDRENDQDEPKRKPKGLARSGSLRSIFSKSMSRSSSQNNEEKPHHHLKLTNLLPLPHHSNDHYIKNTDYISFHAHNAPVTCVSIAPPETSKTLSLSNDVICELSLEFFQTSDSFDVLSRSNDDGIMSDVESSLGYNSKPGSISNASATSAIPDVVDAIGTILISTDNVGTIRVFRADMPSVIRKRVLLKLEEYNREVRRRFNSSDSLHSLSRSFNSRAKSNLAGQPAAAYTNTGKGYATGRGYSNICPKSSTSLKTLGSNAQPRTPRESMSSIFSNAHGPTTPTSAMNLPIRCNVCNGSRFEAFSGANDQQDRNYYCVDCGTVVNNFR

T2: GST-Dgr2 (S. cerevisiae, UniProt P32330 1-852)
T2 construct: Dgr2/Ykl121w, S. cerevisiae, WD40 repeat protein, paralog of Laf1; plasmid described only as pGEX4T-1 Dgr2, no limits stated; Probably the whole open reading frame (surmised); also called Ykl121w; pFR404; source: E. coli BL21(DE3), purified (glutathione beads); not shown: GST, N-terminal, kept
T2 sequence (looked up): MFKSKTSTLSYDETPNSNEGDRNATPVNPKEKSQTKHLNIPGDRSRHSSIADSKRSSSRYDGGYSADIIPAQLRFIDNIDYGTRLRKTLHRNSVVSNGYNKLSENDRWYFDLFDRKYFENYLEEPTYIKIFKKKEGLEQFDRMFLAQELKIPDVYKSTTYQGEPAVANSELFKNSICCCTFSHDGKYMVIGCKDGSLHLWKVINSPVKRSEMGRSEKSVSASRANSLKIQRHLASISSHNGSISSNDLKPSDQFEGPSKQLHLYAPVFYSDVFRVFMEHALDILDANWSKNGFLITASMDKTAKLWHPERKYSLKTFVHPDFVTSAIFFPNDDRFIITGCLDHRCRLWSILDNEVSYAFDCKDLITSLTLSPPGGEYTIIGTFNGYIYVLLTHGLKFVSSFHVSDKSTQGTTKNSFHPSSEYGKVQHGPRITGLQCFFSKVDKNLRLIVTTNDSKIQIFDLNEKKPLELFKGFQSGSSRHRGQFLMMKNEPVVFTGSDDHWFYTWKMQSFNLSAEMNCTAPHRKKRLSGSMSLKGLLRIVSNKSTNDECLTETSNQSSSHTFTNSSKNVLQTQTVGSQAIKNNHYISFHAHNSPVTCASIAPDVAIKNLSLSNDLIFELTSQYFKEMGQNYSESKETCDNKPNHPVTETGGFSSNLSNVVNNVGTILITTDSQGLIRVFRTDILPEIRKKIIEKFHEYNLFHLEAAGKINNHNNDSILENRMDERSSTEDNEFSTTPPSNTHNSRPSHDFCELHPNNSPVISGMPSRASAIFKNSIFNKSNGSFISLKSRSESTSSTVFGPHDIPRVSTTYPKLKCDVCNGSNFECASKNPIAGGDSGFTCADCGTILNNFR

B1: Lam4(371–1177)-(His)6 (domain or fragment, S. cerevisiae, UniProt P38800 371-1177, looked up)
chain: SNLERKTVPSKWSVVSSSTTDGVKPRRRAKSMISAMADKQNTSSDVLQDCKKRLSFNSSNGLTNNDPEYEDREPREMSKKFLNRRSFSPGSISMGMKVLPSTALKYSLNKVKNSTDIASTIIPRPSMSNGRPSSGLRRSSSKSFSSTPVNIIEPSEENGRQSSIRIKGVEYASEKKDAEFHAIFKDSGVSPNERLILDHSCALSRDILLQGRMYISDQHIGFYSNILGWVSTVFIPFKTIVQIEKRATAGIFPNGIVIDTLHTKYTFASFTSRDATYDLITEVWNQIILGKRFRSNSNNTNSSSNSISDDENDDYDDDYDDYGDDDDDLYDNSNNISDSTDMTSSVSIGKPEDLPMPLQTDTPYGTGIPPLGPKIHSPTETVYKPAPNEKLVNESTIHASLGRVVNILFGKDVSYIMAILKAQKNSDISPIPVLVDSPTVSEGKKRDYSYVKTTPGAIGPGKTKCMITETIQHFNLEEYVQVLQTTKTPDVPSGNSFYVRTVYLLSWANNNETKLKLYVSVEWTGKSLIKSPIEKGTFDGVTDATKILVEELGNILTRSATKRKRSSKENTVTVSTLPKMEPSSHAPTEPDIQKDKDDSIIRENENIPAPLGTVVQLLFGSNTEYMQKVITRDKNNVNVETIPKFTPSLVEGGSRHYEYTKKLNNSIGPKQTKCLLTESIEHMDINNYVLVTQTTKTPDVPSGSNFAVESKIFLFWGQHDTTNMTVITKINWTSKSFLKGAIEKGSVEGQKVSVDYMLSELRDIISRAKSKKPVKKVMKSHDKHRPFHSKVEQKSSESRKSDDNKDI
notes: also called Lam4/Ltc3 fragment; pFR407; source: E. coli BL21(DE3), purified (glutathione beads, cut off with TEV protease); not shown: GST, N-terminal, cleaved; His6, C-terminal, kept
B2: Lam2(849–1259)-(His)6 (domain or fragment, S. cerevisiae, UniProt Q06681 849-1259, looked up)
chain: SNNDHLVIEANINAPLGKVVNLLYGEDVSYYERILKAQKNFEISPIPNNFLTKKIRDYAYTKPLSGSIGPSKTKCLITDTLEHYDLEDYVKVLSITKNPDVPSGNIFSVKTVFLFSWDKNNSTKLTVYNSVDWTGKSWIKSMIEKGTFDGVADTTKIMISEIKKILSDEDSNINSKHQASNNESEEEIINLPTIGPPVHDPTEPDFQKGKDDTVIDEKINIPVPLGTVFSLLYGDDTSYIKKIIENQNNFNVCDIPKFVNNAREITYTKKLNNSFGPKQTKCIVTETIEHMDLNSFFMVKQIVRSPDVPYGSSFSVHTRFFYSWGDHNTTNMKVVTNVVWTGKSMLKGTIEKGSIDGQRSSTKQLVDDLKKIISNASSTKKKSRRRGKTVNKRKSSPSTIKNEKNEENFED
notes: tandem StARkin domains, PH domain removed; also called pFR409; source: E. coli BL21(DE3), purified (glutathione beads, cut off with TEV protease); not shown: GST, N-terminal, cleaved; His6, C-terminal, kept
B3: Lam2(482–1259; ∆644–760)-(His)6 (domain or fragment, S. cerevisiae, UniProt Q06681 482-1259, looked up)
chain: LGPKELNTSYRNSTYIDMARFENSQSNLSSHRARSKTLPANKALENAVGDEGNSKRNSRYSSYSNDMAFDDADERKFRSMSKKFLNRRSFSPSNLGNKVIPGINLRNSFNKNRNSSSDFFSTNQGQQMPRTSTAGSGNIHAIMGLDSGNDDFKLEGIEYASEKYRNGFGNNDDGTISDSSSAFFDDSDDNDDDGDLDDDDPDINSTDMTSSDDIDADVFNESNDLGKNQKSTNYLLGPNKHSPTTADFKPSNNDHLVIEANINAPLGKVVNLLYGEDVSYYERILKAQKNFEISPIPNNFLTKKIRDYAYTKPLSGSIGPSKTKCLITDTLEHYDLEDYVKVLSITKNPDVPSGNIFSVKTVFLFSWDKNNSTKLTVYNSVDWTGKSWIKSMIEKGTFDGVADTTKIMISEIKKILSDEDSNINSKHQASNNESEEEIINLPTIGPPVHDPTEPDFQKGKDDTVIDEKINIPVPLGTVFSLLYGDDTSYIKKIIENQNNFNVCDIPKFVNNAREITYTKKLNNSFGPKQTKCIVTETIEHMDLNSFFMVKQIVRSPDVPYGSSFSVHTRFFYSWGDHNTTNMKVVTNVVWTGKSMLKGTIEKGSIDGQRSSTKQLVDDLKKIISNASSTKKKSRRRGKTVNKRKSSPSTIKNEKNEENFED
notes: also called ∆PH; source: E. coli BL21(DE3), purified (glutathione beads, cut off with TEV protease); not shown: GST, N-terminal, cleaved; His6, C-terminal, kept
B4: Lam2(482–1259)-(His)6 (domain or fragment, S. cerevisiae, UniProt Q06681 482-1259, looked up)
chain: LGPKELNTSYRNSTYIDMARFENSQSNLSSHRARSKTLPANKALENAVGDEGNSKRNSRYSSYSNDMAFDDADERKFRSMSKKFLNRRSFSPSNLGNKVIPGINLRNSFNKNRNSSSDFFSTNQGQQMPRTSTAGSGNIHAIMGLDSGNDDFKLEGIEYASEKKNSEFHTLFKDCDINPNEKLIVDHSCALSRDILLQGRMYISDAHIGFFSNILGWVSTVFIPFKEIVQIEKKTTAGIFPNGIVIDTLHTKYIFASFMSRDATFDLITDVWNQIILGKKYRNGFGNNDDGTISDSSSAFFDDSDDNDDDGDLDDDDPDINSTDMTSSDDIDADVFNESNDLGKNQKSTNYLLGPNKHSPTTADFKPSNNDHLVIEANINAPLGKVVNLLYGEDVSYYERILKAQKNFEISPIPNNFLTKKIRDYAYTKPLSGSIGPSKTKCLITDTLEHYDLEDYVKVLSITKNPDVPSGNIFSVKTVFLFSWDKNNSTKLTVYNSVDWTGKSWIKSMIEKGTFDGVADTTKIMISEIKKILSDEDSNINSKHQASNNESEEEIINLPTIGPPVHDPTEPDFQKGKDDTVIDEKINIPVPLGTVFSLLYGDDTSYIKKIIENQNNFNVCDIPKFVNNAREITYTKKLNNSFGPKQTKCIVTETIEHMDLNSFFMVKQIVRSPDVPYGSSFSVHTRFFYSWGDHNTTNMKVVTNVVWTGKSMLKGTIEKGSIDGQRSSTKQLVDDLKKIISNASSTKKKSRRRGKTVNKRKSSPSTIKNEKNEENFED
notes: also called Lam2/Ltc4/Ysp2 fragment; pFR391; source: E. coli BL21(DE3), purified (glutathione beads, cut off with TEV protease); not shown: GST, N-terminal, cleaved; His6, C-terminal, kept
B5: Lam2(482-1259; T518A L519A T1237A V1238A)-(His)6 (domain or fragment, S. cerevisiae, UniProt Q06681 482-1259, looked up)
chain: B4 chain with T37A, L38A, T756A, V757A
notes: also called pFR411; source: E. coli BL21(DE3), purified (glutathione beads, cut off with PreScission protease); not shown: GST, N-terminal, cleaved; His6, C-terminal, kept

Molecular target: T1, GST-Laf1
Assay: pull-down; GST fusion (bait) and His6-tagged Lam fragment incubated 1 h at 4 °C, complexes on glutathione-agarose beads; binding buffer 81 mM NaCl, 4.5 mM KCl, 1.35 mM MgCl2, 0.09% Triton X-100, 0.1 mg/mL BSA, 20 mM HEPES pH 7.5; four washes; immunoblot (anti-His, anti-GST)
Settings: both partners purified

binding result | Binder
binds | B1
binds | B2
binds | B3
binds | B4
binds | B5

Molecular target: T2, GST-Dgr2
Assay: as above
Settings: both partners purified

binding result | Binder
binds | B1
binds | B4
